The target in one experiment is T1, human C5 (human, UniProt P01031 19-1676).
T1 construct: Bought human C5 (EMD #204888, said elsewhere to be purified from plasma); also called hC5; complement component 5
The experiment can be described thus: SPR, mAb captured via anti-hFc, dissociation at pH7.4 vs pH6.0, 25C. The method, then: Effect of pH on the rate of dissociation of recombinant human C5 bound to purified anti-C5 monoclonal antibodies was determined using a real-time surface plasmon resonance biosensor using a Biacore T200 instrument. The Biacore sensor surface was first derivatized by amine coupling with a monoclonal mouse anti-human Fc antibody (GE, # BR-1008-39) to capture anti-C5 monoclonal antibodies expressed with human IgG4 Fc. All Biacore binding studies were performed using two running buffers PBS-T, pH7.4 (0.01M Na₂HPO₄/NaH₂PO₄, 0.15M NaCl, 0.05% v/v Tween-20, adjusted to pH7.4) and PBS-T, pH6.0 (0.01M Na₂HPO₄/NaH₂PO₄, 0.15M NaCl, 0.05% v/v Tween-20, adjusted to pH6.0). […] Binding dissociative half-lives (t %) were calculated from kd as: […]
(Surface plasmon resonance follows binding to a sensor surface in real time, without labels.)

In a further experiment the target is T2, monkey C5-mmh (monkey, UniProt P01031 19-1676 (human entry), limits assumed).
T2 construct: Recombinant monkey C5 with a C-terminal myc-myc-hexahistidine tag
T2 chain: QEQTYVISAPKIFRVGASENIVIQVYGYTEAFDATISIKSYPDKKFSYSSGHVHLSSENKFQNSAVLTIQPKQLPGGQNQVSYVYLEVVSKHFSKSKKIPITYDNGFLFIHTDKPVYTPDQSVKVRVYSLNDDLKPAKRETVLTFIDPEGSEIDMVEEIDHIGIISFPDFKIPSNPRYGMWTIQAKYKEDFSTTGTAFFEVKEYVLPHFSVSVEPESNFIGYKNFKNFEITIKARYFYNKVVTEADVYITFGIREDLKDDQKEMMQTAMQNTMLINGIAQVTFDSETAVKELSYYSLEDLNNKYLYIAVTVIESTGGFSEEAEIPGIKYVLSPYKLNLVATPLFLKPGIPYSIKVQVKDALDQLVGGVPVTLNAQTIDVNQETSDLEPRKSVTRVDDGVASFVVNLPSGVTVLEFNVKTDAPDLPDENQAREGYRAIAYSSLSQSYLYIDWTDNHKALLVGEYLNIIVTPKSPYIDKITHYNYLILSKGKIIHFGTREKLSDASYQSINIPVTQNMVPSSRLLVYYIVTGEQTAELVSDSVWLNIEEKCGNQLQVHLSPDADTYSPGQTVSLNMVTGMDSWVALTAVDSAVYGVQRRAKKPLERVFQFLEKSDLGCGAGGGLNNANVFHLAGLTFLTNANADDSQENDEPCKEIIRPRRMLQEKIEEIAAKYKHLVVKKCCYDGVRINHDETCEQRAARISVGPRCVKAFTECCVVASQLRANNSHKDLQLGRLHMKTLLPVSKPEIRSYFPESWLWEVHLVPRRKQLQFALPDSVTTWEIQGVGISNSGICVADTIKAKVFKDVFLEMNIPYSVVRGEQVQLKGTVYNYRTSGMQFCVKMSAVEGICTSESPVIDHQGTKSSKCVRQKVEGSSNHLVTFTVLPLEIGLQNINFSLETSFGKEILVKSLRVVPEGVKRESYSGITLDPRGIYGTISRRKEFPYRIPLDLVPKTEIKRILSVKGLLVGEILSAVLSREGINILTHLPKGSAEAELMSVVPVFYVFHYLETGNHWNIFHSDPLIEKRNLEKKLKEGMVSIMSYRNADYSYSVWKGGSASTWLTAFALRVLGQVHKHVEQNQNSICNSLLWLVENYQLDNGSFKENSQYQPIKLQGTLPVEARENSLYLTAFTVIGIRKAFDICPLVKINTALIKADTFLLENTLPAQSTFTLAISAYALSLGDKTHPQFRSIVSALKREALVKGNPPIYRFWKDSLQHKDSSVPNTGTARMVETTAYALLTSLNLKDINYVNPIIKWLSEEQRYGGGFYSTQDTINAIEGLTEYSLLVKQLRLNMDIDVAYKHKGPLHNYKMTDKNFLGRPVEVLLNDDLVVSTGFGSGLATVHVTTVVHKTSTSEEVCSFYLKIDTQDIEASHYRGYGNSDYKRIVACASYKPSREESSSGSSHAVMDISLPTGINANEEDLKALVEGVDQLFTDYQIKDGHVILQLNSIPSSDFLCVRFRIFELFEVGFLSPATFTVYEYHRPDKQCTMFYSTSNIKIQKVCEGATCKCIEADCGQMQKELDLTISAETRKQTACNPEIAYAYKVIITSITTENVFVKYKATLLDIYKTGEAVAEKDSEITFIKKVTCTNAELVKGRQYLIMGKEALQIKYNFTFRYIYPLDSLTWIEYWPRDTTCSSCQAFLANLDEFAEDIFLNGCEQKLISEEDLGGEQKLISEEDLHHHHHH
The experiment can be described thus: SPR, mAb captured via anti-hFc, 37C. The method, then:
Equilibrium dissociation constants (KD values) for C5 binding to purified anti-C5 antibodies were determined using a real-time surface plasmon resonance biosensor assay on a Biacore T200 instrument. The Biacore sensor surface was derivatized by amine coupling with a monoclonal mouse anti-human Fc antibody (GE Healthcare, # BR-1008-39) to capture anti-C5 antibodies expressed with human Fc constant regions. Biacore binding studies were conducted in HBST running buffer (0.01M HEPES pH 7.4, 0.15M NaCl, 3 mM EDTA, 0.05% v/v Surfactant P20).
Human C5 was obtained from a commercial source (EMD). Other C5 reagents were expressed with a C-terminal myc-myc-hexahistidine tag (subsequently referred to as C5-mmh). […] Association of all the C5 reagents to each of the captured monoclonal antibodies was monitored for 3 minutes and their dissociation in HBST running buffer was monitored for 8 minutes. All the binding kinetics experiments were performed at either 25° C. or 37° C. Kinetic association (kₐ) and dissociation (kd) rate constants were determined by fitting the real-time sensorgrams to a 1:1 binding model using Scrubber 2.0c curve fitting software. Binding dissociation equilibrium constants (KD) and dissociative half-lives (t %) were calculated from the kinetic rate constants as: KD (M)=kd/kₐ and t_{1/2} (min)=In2/(60×kd)

B1: H4H12166P4 (antibody, human IgG4, V domains shown)
VH: QVQLQESGPGLVKPSETLSLTCTVSGDSVSSSYWTWIRQPPGKGLEWIGYIYYSGSSNYNPSLKSRATISVDTSKNQFSLKLSSVTAADTAVYYCAREGNVDTTMIFDYWGQGTLVTVSS
VL: AIQMTQSPSSLSASVGDRVTITCRASQGIRNDLGWYQQKPGKAPKLLIYAASSLQSGVPSRFAGRGSGTDFTLTISSLQPEDFATYYCLQDFNYPWHFGQGTKVEIK
notes: Histidine-mutated CDR variant of H4H12166P; human IgG4 Fc with S108P
Broadly, the Kd is the equilibrium constant for the complex coming apart. One may read the koff as the first-order rate constant of dissociation. As usually defined, the kon is the second-order rate constant of association. On to B1, for which the “t1/2 Ratio pH7.4/pH6.0” value in the experiment with human C5 came to 7.8. Besides, in the experiment with monkey C5-mmh, the “100 nM monkey C5-mmh Bound (RU)” value was 80 RU, the Kd stood at 8.2 nM, the dissociation rate constant (koff) was 0.00183 s⁻¹ and the association rate constant (kon) was 223000 M⁻¹ s⁻¹. The molecule further came in with a t1/2 with monkey C5-mmh of 6 min.

B2: H4H12166P10 (antibody, human IgG4, V domains shown)
VH: QVQLQESGPGLVKPSETLSLTCTVSGDSVSSSYWTWIRQPPGKGLEWIGYIYYSGSSNYNPSLKSRATISVDTSKNQFSLKLSSVTAADTAVYYCAREGNVDTTMIHDYWGQGTLVTVSS
VL: AIQMTQSPSSLSASVGDRVTITCRASQGIRNDLGWYQQKPGKAPKLLIYAASSLQSGVPSRFAGRGSGTDFTLTISSLQPEDFATYYCLQDFNYPWHFGQGTKVEIK
notes: as for B1
As for B2, the “t1/2 Ratio pH7.4/pH6.0” value with human C5 is 33. In the experiment with monkey C5-mmh, the “100 nM monkey C5-mmh Bound (RU)” value was 24 RU; the affinity, expressed as Kd, was 42.2 nM; the koff is 0.00279 s⁻¹; the on-rate constant (kon) was 66000 M⁻¹ s⁻¹. The molecule further gave a t1/2 with monkey C5-mmh of 4 min.

B3: H4H12166P5 (antibody, human IgG4, V domains shown)
VH: QVQLQESGPGLVKPSETLSLTCTVSGDSVSSSYWTWIRQPPGKGLEWIGYIYYSGSSNYNPSLKSRATISVDTSKNQFSLKLSSVTAADTAVYYCAREGNVDTTMIHDYWGQGTLVTVSS
VL: AIQMTQSPSSLSASVGDRVTITCRASQGIRNDLGWYQQKPGKAPKLLIYAASSLQSGVPSRFAGRGSGTDFTLTISSLQPEDFATYYCLQDFNYPWTFGQGTKVEIK
notes: as for B1
For the molecule B3, the “t1/2 Ratio pH7.4/pH6.0” value in the experiment with human C5 worked out at 8.3. For the same molecule, in the experiment with monkey C5-mmh, the “100 nM monkey C5-mmh Bound (RU)” value worked out at 70 RU, the Kd is 20.9 nM, the koff worked out at 0.00313 s⁻¹ and the kon stood at 150000 M⁻¹ s⁻¹. Moreover, the t1/2 with monkey C5-mmh was 4 min.

B4: H4H12166P7 (antibody, human IgG4, V domains shown)
VH: QVQLQESGPGLVKPSETLSLTCTVSGDSVSSSYWTWIRQPPGKGLEWIGYIYYSGSSNYNPSLKSRATISVDTSKNQFSLKLSSVTAADTAVYYCAREHNVDTTMIFDYWGQGTLVTVSS
VL: AIQMTQSPSSLSASVGDRVTITCRASQGIRNDLGWYQQKPGKAPKLLIYAASSLQSGVPSRFAGRGSGTDFTLTISSLQPEDFATYYCLQDFNYPWHFGQGTKVEIK
notes: as for B1
Turning to B4, the “t1/2 Ratio pH7.4/pH6.0” value with human C5 was found to be 35. In the experiment with monkey C5-mmh, the “100 nM monkey C5-mmh Bound (RU)” value stood at 48 RU, the Kd was 19.3 nM, the koff turned out to be 0.00241 s⁻¹ and the on-rate constant (kon) came out at 125000 M⁻¹ s⁻¹. In the experiment with monkey C5-mmh, this molecule registered a t1/2 of 5 min.

B5: H4H12166P9 (antibody, human IgG4, V domains shown)
VH: QVQLQESGPGLVKPSETLSLTCTVSGDSVSSSYWTWIRQPPGKGLEWIGYIYYSGSSNYNPSLKSRATISVDTSKNQFSLKLSSVTAADTAVYYCAREGNVDHTMIFDYWGQGTLVTVSS
VL: AIQMTQSPSSLSASVGDRVTITCRASQGIRNDLGWYQQKPGKAPKLLIYAASSLQSGVPSRFAGRGSGTDFTLTISSLQPEDFATYYCLQDFNYPWHFGQGTKVEIK
notes: as for B1
On to B5, for which the “t1/2 Ratio pH7.4/pH6.0” value with human C5 was determined as 31. For the same molecule, in the experiment with monkey C5-mmh, the “100 nM monkey C5-mmh Bound (RU)” value amounted to 69 RU, the equilibrium dissociation constant (Kd) stood at 14.4 nM, the off-rate constant (koff) worked out at 0.00261 s⁻¹ and the kon turned out to be 181000 M⁻¹ s⁻¹. Further, the t1/2 with monkey C5-mmh came out at 4 min.

B6: H4H12166P8 (antibody, human IgG4, V domains shown)
VH: QVQLQESGPGLVKPSETLSLTCTVSGDSVSSSYWTWIRQPPGKGLEWIGYIYYSGSSNYNPSLKSRATISVDTSKNQFSLKLSSVTAADTAVYYCAREGNVDHTMIFDYWGQGTLVTVSS
VL: AIQMTQSPSSLSASVGDRVTITCRASQGIRNDLGWYQQKPGKAPKLLIYAASSLQSGVPSRFAGRGSGTDFTLTISSLQPEDFATYYCHQDFNYPWTFGQGTKVEIK
notes: as for B1
B6: the “t1/2 Ratio pH7.4/pH6.0” value with human C5 amounted to 47. In addition, in the experiment with monkey C5-mmh, the “100 nM monkey C5-mmh Bound (RU)” value turned out to be 53 RU, the Kd came out at 13.3 nM, the koff turned out to be 0.00269 s⁻¹ and the kon was determined as 203000 M⁻¹ s⁻¹. Further, the t1/2 in the experiment with monkey C5-mmh stood at 4 min.

B7: H4H12166P6 (antibody, human IgG4, V domains shown)
VH: QVQLQESGPGLVKPSETLSLTCTVSGDSVSSSYWTWIRQPPGKGLEWIGYIYYSGSSNYNPSLKSRATISVDTSKNQFSLKLSSVTAADTAVYYCAREGNVDHTMIFDYWGQGTLVTVSS
VL: AIQMTQSPSSLSASVGDRVTITCRASQGIRNDLGWYQQKPGKAPKLLIYAASSLQSGVPSRFAGRGSGTDFTLTISSLQPEDFATYYCLQDFNYPWTFGQGTKVEIK
notes: as for B1
In the case of B7, the “t1/2 Ratio pH7.4/pH6.0” value with human C5 stood at 7.8. In the experiment with monkey C5-mmh, the “100 nM monkey C5-mmh Bound (RU)” value amounted to 112 RU, binding was put at a Kd of 9.18 nM, the koff was found to be 0.00232 s⁻¹ and the kon worked out at 253000 M⁻¹ s⁻¹. This molecule gave a t1/2 with monkey C5-mmh of 5 min.

The record behind these values is patent US20170355757A1 (Regeneron, published 2017).
